Source: publication PMC6555648 (Molecular cell, 2019)
Where no end group is shown, it is not given here.

T1: mouse REC114 residues 1–158 (REC114N) (mouse, UniProt Q9CWH4 1-158, selenomethionine derivative (in the crystals))
T1 sequence (looked up): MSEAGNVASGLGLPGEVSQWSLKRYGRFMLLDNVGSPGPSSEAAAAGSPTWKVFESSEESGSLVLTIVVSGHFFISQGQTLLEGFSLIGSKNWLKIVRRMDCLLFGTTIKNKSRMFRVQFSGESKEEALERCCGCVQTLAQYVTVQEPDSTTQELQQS


Tests used:
[1] = target: T1, mouse REC114 residues 1–158 (REC114N); test: crystal structure
[2] = target: T1, mouse REC114 residues 1–158 (REC114N); test: pull-down

Binder | binding result [1] | binding result [2]
SRESMQTIPHYLQIKEILQISKQELLPCHVMEQHWKFYVGRSHSEALLSW (domain or fragment, UniProt A0A140LI88 1808-1857, looked up, also: selenomethionine derivative) [mouse ANKRD31 residues 1808–1857 (ANKRD31C)] | binds | 
SRESMQTIPHYLQIKEILQISKQELLPCHVMEQHWKFYVGRSHSEALLSW (domain or fragment, mouse, UniProt A0A140LI88 1808-1857, looked up) [GST-tagged ANKRD31C] |  | binds
